T1: GFP-9S library array, motif 4 ND N98M;D124T (synthetic construct, N98M;D124T)
T1 chain: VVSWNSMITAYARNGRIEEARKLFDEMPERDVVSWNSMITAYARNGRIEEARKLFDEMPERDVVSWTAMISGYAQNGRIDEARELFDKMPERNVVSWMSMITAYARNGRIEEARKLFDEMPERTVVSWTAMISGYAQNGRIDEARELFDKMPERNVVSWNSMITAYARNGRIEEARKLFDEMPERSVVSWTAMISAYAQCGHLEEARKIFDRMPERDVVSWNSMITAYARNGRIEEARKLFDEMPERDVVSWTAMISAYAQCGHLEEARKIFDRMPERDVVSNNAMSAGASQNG

T2: GFP-9S library array, motif 4 ND N98R;D124A (synthetic construct, N98R;D124A)
T2 chain: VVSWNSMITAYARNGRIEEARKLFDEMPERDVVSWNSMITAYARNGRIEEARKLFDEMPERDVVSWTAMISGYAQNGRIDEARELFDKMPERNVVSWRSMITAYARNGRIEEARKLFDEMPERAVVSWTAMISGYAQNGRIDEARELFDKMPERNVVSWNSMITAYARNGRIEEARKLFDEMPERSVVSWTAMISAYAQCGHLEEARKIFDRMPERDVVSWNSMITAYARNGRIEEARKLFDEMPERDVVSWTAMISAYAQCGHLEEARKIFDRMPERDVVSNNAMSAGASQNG

T3: GFP-9S library array, motif 4 ND N98Y;D124C (synthetic construct, N98Y;D124C)
T3 chain: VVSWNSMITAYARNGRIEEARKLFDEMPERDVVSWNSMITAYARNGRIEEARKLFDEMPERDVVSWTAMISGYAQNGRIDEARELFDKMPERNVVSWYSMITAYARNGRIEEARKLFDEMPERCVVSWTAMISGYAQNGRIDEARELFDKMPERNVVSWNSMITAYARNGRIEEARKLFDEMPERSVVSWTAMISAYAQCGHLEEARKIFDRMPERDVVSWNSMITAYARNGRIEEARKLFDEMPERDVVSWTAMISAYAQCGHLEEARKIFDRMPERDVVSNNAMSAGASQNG

T4: GFP-9S library array, motif 4 ND N98W;D124C (synthetic construct, N98W;D124C)
T4 chain: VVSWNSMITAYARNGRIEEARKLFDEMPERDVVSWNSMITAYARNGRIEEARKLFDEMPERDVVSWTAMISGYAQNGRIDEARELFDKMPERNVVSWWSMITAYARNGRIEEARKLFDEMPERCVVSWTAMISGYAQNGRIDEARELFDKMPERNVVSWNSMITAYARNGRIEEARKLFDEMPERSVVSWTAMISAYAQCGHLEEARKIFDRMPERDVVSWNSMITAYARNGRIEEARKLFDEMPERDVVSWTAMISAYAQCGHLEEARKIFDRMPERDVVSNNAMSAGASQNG

T5: GFP-9S library array, motif 4 ND N98V;D124H (synthetic construct, N98V;D124H)
T5 chain: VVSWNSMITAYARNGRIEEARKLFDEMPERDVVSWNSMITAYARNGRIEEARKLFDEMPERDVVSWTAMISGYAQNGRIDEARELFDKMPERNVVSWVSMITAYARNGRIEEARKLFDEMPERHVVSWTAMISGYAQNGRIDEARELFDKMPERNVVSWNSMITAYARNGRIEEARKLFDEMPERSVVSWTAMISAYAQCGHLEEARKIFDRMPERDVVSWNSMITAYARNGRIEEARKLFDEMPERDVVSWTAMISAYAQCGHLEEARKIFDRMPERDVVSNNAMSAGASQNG

B1: Cy5-rpoA (ssRNA)
RNA: AUUACACGUGA
B2: IR-rpoA-U (ssRNA)
RNA: AUUAUACGUGA
B3: IR-rpoA-A (ssRNA)
RNA: AUUAAACGUGA
B4: Cy5-rpoA-G (ssRNA)
RNA: AUUAGACGUGA

Columns and labels:
Experiment in all cases: high-throughput RNA pulldown from lysate on Ni-NTA beads; HRP: 50 mM Tris pH 8, 150 mM NaCl, 1 mM beta-mercaptoethanol, 50 ug/ml BSA, 3 ug/ml yeast RNA, 0.5% heparin; ITC and FP: Tris pH 8, 200 mM KCl, 5% glycerol; MST: 50 mM Tris pH 8, 200 mM NaCl, 1 mM DTT, BSA, heparin, 0.05% Tween 20
Details in all cases: tags: N-terminal His-eGFP
[1] = molecular target: T1, GFP-9S library array, motif 4 ND …
[2] = molecular target: T2, GFP-9S library array, motif 4 ND …
[3] = molecular target: T3, GFP-9S library array, motif 4 ND …
[4] = molecular target: T4, GFP-9S library array, motif 4 ND …
[5] = molecular target: T5, GFP-9S library array, motif 4 ND …

Row | Binder | Kd ([1]; label: 5' Cy5) [nM] | Kd ([2]; label: 5' Cy5) [nM] | Kd ([3]; label: 5' Cy5) [nM] | Kd ([4]; label: 5' Cy5) [nM] | Kd ([5]; label: 5' Cy5) [nM] | Kd ([1]; label: 5' IRDye 800CW) [nM] | Kd ([2]; label: 5' IRDye 800CW) [nM] | Kd ([3]; label: 5' IRDye 800CW) [nM] | Kd ([4]; label: 5' IRDye 800CW) [nM] | Kd ([5]; label: 5' IRDye 800CW) [nM]
1 | B1 | 124 | 75.1 | 126 | 79.4 | 160 |  |  |  |  | 
2 | B2 |  |  |  |  |  | 109 | 114 | 271 | 199 | 219
3 | B3 |  |  |  |  |  | 116 | 145 | 211 | 181 | 209
4 | B4 | 115 | 89.4 | 115 | 77.6 | 155 |  |  |  |  | 
